# B1: ferritins: recombinant mouse ferritin protein of SEQ ID NO: 4 expressed in E. coli (protein)
# chain: MTTASPSQVRQNYHQDAEAAINRQINLELYASYVYLSMSCYFDRDDVALKNFAKYFLHQSHEEREHAEKLMKLQNQRGGRIFLQDIKKPDRDDWESGLNAMECALHLEKSVNQSLLELHKLATDKNDPHLCDFIETYYLSEQVKSIKELGDHVTNLRKMGAPEAGMAEYLFDKHTLGHGD
# Test system: CD45+ leukocyte cells (macrophages, monocytes, lymphocytes, granulocytes)
# Assay: Uptake of iron binding proteins by CD45+ leukocyte cells in culture
# Format: cell-based, mouse
# Settings: incubation 1-4 hrs, 0.1-0.2 mg/ml protein solution, standard culture conditions; FIG. 5
# Procedure: (§1) Obtained cells are incubated in ferritin solution for a time and at the concentration sufficient to ensure proper ratio of ferritin/cell for their full load and also to ensure proper contrast content to obtain proper imaging). The time and concentration may vary depending on the number of molecules encapsulated/adsorbed into the ferritin cage, status of cell activation, condition and number of their intended administration.
# For example, to ensure proper load with ferritins, cells are incubated for 1-4 hrs in ferritin solution 0.2 mg/ml in standard culture conditions. The frame of ferritin concentration may vary at least between 0.01 and 4 mg/ml as well as incubation time (5 min-6 hrs or more). Adjusting time and concentration of ferritin load to cells, the influence of ferritin and treatment conditions on cell viability should be minded.
# as §1, with “haemoglobin” for “ferritin”, “haemoglobin/cell” for “ferritin/cell”, “imaging.” for “imaging).”, “linked with” for “encapsulated/adsorbed into”, “haemoglobin molecule,” for “ferritin cage,”, “administration. […]” for “administration.”
molecule,measurement,value
B1,uptake of iron binding protein by cells,very easily uptake

# Source: US12485192B2, “Cellular targeted label delivery system” (CELLIS AG, priority 2016, dated 2025)
